Experimental data from the DeepSol protein solubility set.

Experiment: soluble on expression in E. coli; label from the status in PepcDB or PDB records
With “MGSDKIHHHHHHMSEYLEIPELNKAFPFRSFVNEGEVLVYPHWHKEIEIIYALKGSLNLGVNDMPIQLNEGEIQIINGGDVHYFLASPNSERIVIQFDLSLFQEEMQMDGQNGTLREMLTEMAHLSREWPEETTAKVQSLIRNIHLESSNDSPGKHYILKADLLAIIGLIYREIPQKKTQPDSVISEKAVLKSKETLQKLDQIFSYVEKHYQEPVSLQEVADYTGFSTYYFTKFFKRNTGMTFVTFLNDYRLNKAKWMLLNEAFPVTEVAELAGFSSVKTFHHAFKRAMGVAPLKYRKTIYGNN” the “soluble on expression in E. coli” value was “not soluble”. In the case of “MKQAIGFIDSGVGGLTVVREVLKQLPHEQVYYLGDTARCPYGPRDKEEVAKFTWEMTNFLVDRGIKMLVIACNTATAAALYDIREKLDIPVIGVIQPGSRAALKATRNNKIGVLGTLGTVESMAYPTALKGLNRRVEVDSLACPKFVSVVESGEYKSAIAKKVVAESLLPLKSTKIDTVILGCTHYPLLKPIIENFMGDGVAVINSGEETASEVSALLDYHNLLDATDEEIEHRFFTTGSTQIFKDIAKDWLNMPDMTVEHIKLGK”, the “soluble on expression in E. coli” value is reported as “not soluble”. In the case of “MSAFYQIFHDTHYKYDTPVSLAQQLAHLWPRSSPWQRCTEQALEIFPAPTTRRDELDVFGNPLTRLAFERPHDELQVNARLRIEVLERPQLDFNLSPEWEVTRNALTYSAKPMTEDILEACRYRFESPYVHLKRSFVEFSQDCFPVGRPLLLGVQALMEKIFDEFTFDEEATQVATPLVEVLESRRGVCQDFAHLMLACLRSRGLAARYVSGYLLTQPPPGQPRLIGADASHAWVSVFCPASGWVDFDPTNNVQPALEHISLAWGRDFSDVSPLRGVILGGGSHDPDVRVTVMPVSA”, the “soluble on expression in E. coli” value is reported as “not soluble”. In the case of “MGSDKIHHHHHHQSGPLRLEITEGVIEPLPFALPTFLAVGGAEDAAADVSRVIAADLRGTGLFRQIPPDAYISQITNFGAPVAYPDWQAINAQALITGQVEARADGQLVVRFRLFDVFSQAPLGEGLQFVGPADSWRRMAHTVADQVYSRITGEGGYFDTRVAFIAEEGPKNARLKRLAIMDYDGANVQFLTDSRSIVLAPRFSPQGDRILYTSYESGFPQVYIMDVATVQRRPLEAIPAETMTFSPRFSPSGQSVVFSLVDGSNTDIYSLDLATGTRRQLTQAPSIETAPSFSPDGSQIVFESDRSGNQQIYIMPADGGEARRVSAGTGRYGTPVWSPRGDYIAFTKQENGRFHIGVMRTDGSDERLLTSSFLDEGPTWAPNGRVIMFTRETPGDDGAPAVYSVDISGRNLQRVATPGMASDPAWSPLQS”, the “soluble on expression in E. coli” value is reported as “not soluble”. With “MANKLRNYTINFGPQHPAAHGVLRMILELDGEQIVRADPHIGLLHRGTEKLAETKTYLQALPYMDRLDYVSMMVNEQAYCLAVEKLVGIDVPIRAQYIRVMFAEVTRILNHLMGIGSHAFDIGAMTAILYAFRDREELMDLYEAVSGARMHAAYFRPGGVYRDLPDFMPKYEGSKFRNAKVLKQLNESREGTMLDFIDAFCERFPKNIDTLETLLTDNRIWKQRTVGIGVVSPERAMQKGFTGVMLRGSGVEWDVRKTQPYEVYDKMDFDIPVGVNGDCYDRYLCRMEEMRQSVRIIKQCSEWLRVNPGPVITTNHKFAPPKRTEMKTGMEDLIHHFKLFTEGMHVPEGETYTAVEHPKGEFGVYIISDGANKPYRLKIRAPGFAHLQGMDEMAKGHMLADVVAIIGTQDIVFGEVDR” the “soluble on expression in E. coli” value was “not soluble”. In the case of “MSLSYRIDVLLFNKFETLDVFGPVEIFGNLQDDFELNFISSDGGLVESSQKVRVETSLYTRDENIEKILFVPGGSGTREKVNDDNFINFIGNMVKESKYIISVCTGSALLSKAGILNGKRATTNKRSFKWVTEQNEDVLWVKEARWVKDGNIYTSSGVSAGIDMTLGFIEDLIGKEKALEISRSIEYFWNEDSNYDPFSKIYGEGHHHHHH”, the “soluble on expression in E. coli” value is reported as “soluble”. In the case of “MGSDKIHHHHHHMDNYEGSDPWNTSSNAWTKDDDHVVSTTNSEPSLNGISGEFNTLNFSTPLDTNEEDTGFLPTNDVLEESIWDDSRNPLGATGMSQTPNIAANETVIDKNDARDQNIEESEADLLDWTNNVRKTYRPLDADIIIIEEIPEREGLLFKHANYLVKHLIALPSTSPSEERTVVRRYSDFLWLREILLKRYPFRMIPELPPKRIGSQNADQLFLKKRRIGLSRFINLVMKHPKLSNDDLVLTFLTVRTDLTSWRKQATYDTSNEFADKKISQEFMKMWKKEFAEQWNQAASCIDTSMELWYRITLLLERHEKRIMQMVHERNFFETLVDNFSEVTPKLYPVQQNDTILDINNNLSIIKKHLETTSSICKQETEEISGTLSPKFKIFTDILLSLRSLFERYKIMAANNVVELQRHVELNKEKLESMKGKPDVSGAEYDRIKKIIQKDRRSIIEQSNRAWLIRQCILEEFTIFQETQFLITRAFQDWAKLNSNHAGLKLNEWEKLVTSIMDMPISRE”, the “soluble on expression in E. coli” value is reported as “not soluble”. With “MSLTIVAPMDEILERAHVVALPMRVKFRGIMVREAVLFDGPKGWGEFSPFVEYGVQEAAQWLRCGLEMAFQGPPPMIRDAVEVNATIPAVSPDQVPEILARYPGCTTVKVKVAEGDDAARVAMVREVLPDARIRVDANRGWTVDQAVAASKHLGELEYMEQPCASVAELAELRRRISVPIAADESIRRVSDPYEVARLHAADVAVVKAAPLGGPRNIVDIAKFYQQRGLSLTVASALDTGVGMNAGIAVAAAIDSNPAGLATQRLFVEDVTEPRTIVDGKMSVEMLAPDPARLAEFEVTGPRRDWWLDRVRGALECLHDFIPEGHHHHHH” the “soluble on expression in E. coli” value was “soluble”. For “MGRIFLDHIGGTRLFSCANCDTILTNRSELISTRFTGATGRAFLFNKVVNLQYSEVQDRVMLTGRHMVRDVSCKNCNSKLGWIYEFATEDSQRYKEGRVILERALVRESEGFEEHVPSDNS”, the “soluble on expression in E. coli” value was “soluble”. In the case of “MGSSHHHHHHHSSGLVPRGSHMMRKRARIIYNPTSGKEQFKRELPDALIKLEKAGYETSAYATEKIGDATLEAERAMHENYDVLIAAGGDGTLNEVVNGIAEKPNRPKLGVIPMGTVNDFGRALHIPNDIMGALDVIIEGHSTKVDIGKMNNRYFINLAAGGQLTQVSYETPSKLKSIVGPFAYYIKGFEMLPQMKAVDLRIEYDGNVFQGEALLFFLGLTNSMAGFEKLVPDAKLDDGYFTLIIVEKSNLAELGHIMTLASRGEHTKHPKVIYEKAKAINISSFTDLQLNVDGEYGGKLPANFLNLERHIDVFAPNDIVNEELINNDHVDDNLIEE”, the “soluble on expression in E. coli” value is reported as “soluble”. For “MPAPDPMRGDPPHPAPPRLRSPLDPTSGDPLHPAPPRLRSPLDPTSGDPLHPAPPRLRSPLDPTSGDPLHPAPPRLRSPLVLLDGASMWFRSFFGVPSSITAPDGRPVNAVRGFIDSMAVVITQQRPNRLAVCLDLDWRPQFRVDLIPSYKAHRVAEPEPNGQPDVEEVPDELTPQVDMIMELLDAFGIAMAGAPGFEADDVLGTLATRERRDPVIVVSGDRDLLQVVADDPVPVRVLYLGRGLAKATLFGPAEVAERYGLPAHRAGAAYAELALLRGDPSDGLPGVPGVGEKTAATLLARHGSLDQIMAAADDRKTTMAKGLRTKLLAASAYIKAADRVVRVATDAPVTLSTPTDRFPLVAADPERTAELATRFGVESSIARLQKALDTLPG”, the “soluble on expression in E. coli” value was “not soluble”. In the case of “MALTVAKSALEAIREKGLGGFMRMIREEGFMRCLPDGNLLQTKIHNIGATLVGVDKFGNKYYQKLGDTQYGRHRWVEYASKDRYNASQVPAEWHGWLHFITDHTGDELLSLKPKRYGLEHKENFSGEGDAYIYHSKGHTLNPGQKNWTRYQSWVPTKTQ”, the “soluble on expression in E. coli” value is reported as “not soluble”. In the case of “MTNNDKNKKIVPEVKGTLRSHMIELPEVIRNATGIRVFGKRLKSFVFSTDVAVIRNTNADAVIAVYPFTPQPVITAAIVLAADVPVFCGVGGGLTMGKRVVNLALDAEFKGAMGVVVNSPTPNDIIREVRETIDIPIIVTVVSEYEDVQARIDSGATILNVSGAKRTSHIVRSIREKFPSIPIIATGGNNEASIIETIEAGANAITYTPPTTGKIFGDTMNSYRKKFE”, the “soluble on expression in E. coli” value is reported as “not soluble”. With “LPNITILATGGTIAGGGDSATKSNYTVGKVGVENLVNAVPQLKDIANVKGEQVVNIGSQDMNDNVWLTLAKKINTDCDKTDGFVITHGTETMEETAYFLDLTVKCDKPVVMVGAMRPSTSMSADGPFNLYNAVVTAADKASANRGVLVVMNDTVLDGRDVTKTNTTDVATFKSVNYGPLGYIHNGKIDYQRTPARKHTSDTPFDVSKLNELPKVGIVYNYANASDLPAKALVDAGYDGIVSAGVGNGNLYKSVFDTLATAAKTGTAVVRSSRVPTGATTQDAEVDDAKYGFVASGTLNPQKARVLLQLALTQTKDPQQIQQIFNQY” the “soluble on expression in E. coli” value was “soluble”. For “FSDILEDRIERLNACFAKAIARYNYPGVYRGVFPVKCNQERHLIEDLVKFGKPHQFGLEAGSKPELMIALAVLDTPGALLVCNGYKDREYIETAMLAQRLGQTPIIVLEQIEEVDLVIDANRQLGIKPILGVRAKLSTQGMGRWGASSGDRAKFGLTMPEVIEAVDKLREANLLDSLQLMHFHIGSQISAINVIKDAIQEASRIYVELAMLGADMKYLDVGGGLGVDYDGSQTNFYASKNYNMQNYANDIVAELKDTCAERQITVPTLISESGRAIAS”, the “soluble on expression in E. coli” value was “not soluble”. In the case of “MGSDKIHHHHHHMSRALAKPEIITELSFEEIRAAVLTHLKELLPEYTFLESDPAVKVIEAFSYRELLLRQRINEAARNNILDFATGESLDALGNWHGIARIEGESDERYRERVQLHARGGNGSGTEPYYKLIALTADSRVKDAIIYRKGKDPTIYVAIFGNNEEGTASEDLLQTVSQALHRKNIIMTNDTIIVHAAVKKVLDLEADVWLLPEASLKILTTMEANLRTAWKQEQAIGRELSLSWWVSKLMIPGVQKVIAIAPTKDSVVCDEEILSIGKITLNFKGRAR”, the “soluble on expression in E. coli” value is reported as “not soluble”. For “MCINLQKMCKKCAKMCKICAKVCKKCAKNVQKKCKKCGKMCKKCAKKCLKKSKFSDPRNPKMLPTSLLVCSTGIPIECSAELLSKFKTRRI”, the “soluble on expression in E. coli” value was “soluble”. For “PIKMGWLKKQRSIVKNWQQRYFVLRAQQLYYYKDEEDTKPQGCMYLPGCTIKEIATNPEEAGKFVFEIIPASWDQNRMGQDSYVLMASSQAEMEEWVKFLRRVAG”, the “soluble on expression in E. coli” value was “soluble”. For “MSRLPLLLLSVLLATPAAQASDCPDLALVLALDSSLSIDRAEFALQAEGYAEAFRSPAVQAALAAAGTVDVAAVVWSDGAAPPARLGWQRIAAPEDARRLAVRLAALERVAPGRTGVGGGLAAALEMLAGHGCAGRRLVNLSGDGRETLAPRMGLRGQLMRARAEAEALGATVNALAVTDEEADLPDWFRSHVIVGPGAFVMETREFRGFAEAVARKLVREIAPPALAAGRPGLPPHRLTPGGRDHPARRSLEHHHHHH”, the “soluble on expression in E. coli” value was “not soluble”.
